Measurements published in the supplement of paper PMC9112550, “Optimization of the antimicrobial peptide Bac7 by deep mutational scanning” (BMC Biology, 2022).

Test system: Escherichia coli TOP10
Test: shrunken log2 fold change of peptide-encoding DNA abundance (4.5 h post-induction vs induction); higher = less antimicrobial activity (less host growth inhibition)
Settings: time post-induction: 4.5 h; library: site-saturation at positions 5, 18, 19, 20
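Further: peptides expressed intracellularly from a pBAD plasmid library in pooled LB shake-flask culture, induced with 0.3% L-arabinose, DNA abundance read by NGS, three biological replicates, DESeq2 with apeglm shrinkage.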

Row | Sequence | shrunken log2 fold change
1 | RRIRERPPRLPRPRPRPHMGPRP | -0.00822
2 | RRIRERPPRLPRPRPRPHMHPRP | -0.687
3 | RRIRERPPRLPRPRPRPHMLPRP | -0.376
4 | RRIRERPPRLPRPRPRPHMNPRP | -0.337
5 | RRIRERPPRLPRPRPRPHNAPRP | -0.192
6 | RRIRERPPRLPRPRPRPHNRPRP | -0.0587
7 | RRIRERPPRLPRPRPRPHNYPRP | -0.612
8 | RRIRERPPRLPRPRPRPHPHPRP | -0.167
9 | RRIRERPPRLPRPRPRPHPLPRP | -0.0971
10 | RRIRERPPRLPRPRPRPHQDPRP | -0.0312
11 | RRIRERPPRLPRPRPRPHQGPRP | 0.0963
12 | RRIRERPPRLPRPRPRPHQHPRP | -0.449
13 | RRIRERPPRLPRPRPRPHQKPRP | -0.0694
14 | RRIRERPPRLPRPRPRPHQPPRP | 0.202
15 | RRIRERPPRLPRPRPRPHQSPRP | -0.0234
16 | RRIRERPPRLPRPRPRPHQWPRP | -0.199
17 | RRIRERPPRLPRPRPRPHWAPRP | 0.225
18 | RRIRERPPRLPRPRPRPHWYPRP | -1.19
19 | RRIRERPPRLPRPRPRPHYDPRP | -0.963
20 | RRIRERPPRLPRPRPRPHYTPRP | -0.615
21 | RRIRERPPRLPRPRPRPHYYPRP | -0.83
22 | RRIRERPPRLPRPRPRPICTPRP | -0.249
23 | RRIRERPPRLPRPRPRPIDDPRP | 0.0583
24 | RRIRERPPRLPRPRPRPIDFPRP | 0.136
25 | RRIRERPPRLPRPRPRPIDGPRP | 0.0442

Row | Sequence | shrunken log2 fold change
26 | RRIRERPPRLPRPRPRPIENPRP | 0.0371
27 | RRIRERPPRLPRPRPRPIFAPRP | 0.21
28 | RRIRERPPRLPRPRPRPIFFPRP | 0.0602
29 | RRIRERPPRLPRPRPRPIGNPRP | -0.134
30 | RRIRERPPRLPRPRPRPIGQPRP | 0.000367
31 | RRIRERPPRLPRPRPRPIIQPRP | -0.386
32 | RRIRERPPRLPRPRPRPIIYPRP | -0.412
33 | RRIRERPPRLPRPRPRPIKFPRP | -0.0529
34 | RRIRERPPRLPRPRPRPIKHPRP | -0.967
35 | RRIRERPPRLPRPRPRPIKIPRP | -0.681
36 | RRIRERPPRLPRPRPRPIKKPRP | 0.00021
37 | RRIRERPPRLPRPRPRPILWPRP | -0.161
38 | RRIRERPPRLPRPRPRPIMHPRP | -0.462
39 | RRIRERPPRLPRPRPRPIMTPRP | -0.714
40 | RRIRERPPRLPRPRPRPINCPRP | -0.00179
41 | RRIRERPPRLPRPRPRPIRRPRP | -0.17
42 | RRIRERPPRLPRPRPRPISIPRP | -0.258
43 | RRIRERPPRLPRPRPRPITDPRP | -0.00102
44 | RRIRERPPRLPRPRPRPIVFPRP | 0.0592
45 | RRIRERPPRLPRPRPRPIYFPRP | -0.378
46 | RRIRERPPRLPRPRPRPIYHPRP | -0.626
47 | RRIRERPPRLPRPRPRPIYNPRP | -0.85
48 | RRIRERPPRLPRPRPRPKAMPRP | 0.282
49 | RRIRERPPRLPRPRPRPKAPPRP | 0.124
50 | RRIRERPPRLPRPRPRPKASPRP | 0.0444

Row | Sequence | shrunken log2 fold change
51 | RRIRERPPRLPRPRPRPKCPPRP | 0.0136
52 | RRIRERPPRLPRPRPRPKFPPRP | 0.0509
53 | RRIRERPPRLPRPRPRPKGAPRP | 0.216
54 | RRIRERPPRLPRPRPRPKIFPRP | 0.0686
55 | RRIRERPPRLPRPRPRPKKAPRP | -0.0599
56 | RRIRERPPRLPRPRPRPKKDPRP | -0.346
57 | RRIRERPPRLPRPRPRPKKVPRP | -0.178
58 | RRIRERPPRLPRPRPRPKLCPRP | 0.000831
59 | RRIRERPPRLPRPRPRPKMHPRP | -0.134
60 | RRIRERPPRLPRPRPRPKMLPRP | -0.0332
61 | RRIRERPPRLPRPRPRPKMTPRP | -0.0406
62 | RRIRERPPRLPRPRPRPKNDPRP | -0.467
63 | RRIRERPPRLPRPRPRPKNLPRP | 0.072
64 | RRIRERPPRLPRPRPRPKNVPRP | 0.0204
65 | RRIRERPPRLPRPRPRPKNWPRP | 1.59
66 | RRIRERPPRLPRPRPRPKPVPRP | 0.173
67 | RRIRERPPRLPRPRPRPKRMPRP | -0.0497
68 | RRIRERPPRLPRPRPRPKRRPRP | 0.143
69 | RRIRERPPRLPRPRPRPKRVPRP | -0.0417
70 | RRIRERPPRLPRPRPRPKSQPRP | -0.0879
71 | RRIRERPPRLPRPRPRPKTIPRP | -0.232
72 | RRIRERPPRLPRPRPRPKVVPRP | -0.0857
73 | RRIRERPPRLPRPRPRPKWMPRP | -0.0884
74 | RRIRERPPRLPRPRPRPKWVPRP | -0.0367
75 | RRIRERPPRLPRPRPRPKYCPRP | -0.368

Row | Sequence | shrunken log2 fold change
76 | RRIRERPPRLPRPRPRPKYSPRP | -0.866
77 | RRIRERPPRLPRPRPRPLAHPRP | -0.368
78 | RRIRERPPRLPRPRPRPLARPRP | 0.179
79 | RRIRERPPRLPRPRPRPLCSPRP | -0.512
80 | RRIRERPPRLPRPRPRPLDKPRP | -0.114
81 | RRIRERPPRLPRPRPRPLDVPRP | -0.304
82 | RRIRERPPRLPRPRPRPLDYPRP | -0.163
83 | RRIRERPPRLPRPRPRPLFKPRP | -0.543
84 | RRIRERPPRLPRPRPRPLGLPRP | -0.00554
85 | RRIRERPPRLPRPRPRPLHPPRP | 0.309
86 | RRIRERPPRLPRPRPRPLHQPRP | -0.0505
87 | RRIRERPPRLPRPRPRPLIAPRP | -0.128
88 | RRIRERPPRLPRPRPRPLINPRP | -0.512
89 | RRIRERPPRLPRPRPRPLKWPRP | 0.159
90 | RRIRERPPRLPRPRPRPLLIPRP | -0.437
91 | RRIRERPPRLPRPRPRPLMHPRP | -0.231
92 | RRIRERPPRLPRPRPRPLMNPRP | -0.336
93 | RRIRERPPRLPRPRPRPLNHPRP | -0.443
94 | RRIRERPPRLPRPRPRPLPRPRP | 0.179
95 | RRIRERPPRLPRPRPRPLQDPRP | -0.133
96 | RRIRERPPRLPRPRPRPLQEPRP | -0.154
97 | RRIRERPPRLPRPRPRPLRCPRP | 0.187
98 | RRIRERPPRLPRPRPRPLRDPRP | -0.0299
99 | RRIRERPPRLPRPRPRPLSGPRP | -0.135
100 | RRIRERPPRLPRPRPRPLSNPRP | 0.0169

Row | Sequence | shrunken log2 fold change
101 | RRIRERPPRLPRPRPRPLSPPRP | -0.17
102 | RRIRERPPRLPRPRPRPLTDPRP | -0.394
103 | RRIRERPPRLPRPRPRPLTTPRP | -0.395
104 | RRIRERPPRLPRPRPRPLTVPRP | -0.0383
105 | RRIRERPPRLPRPRPRPLVCPRP | 0.00932
106 | RRIRERPPRLPRPRPRPLWSPRP | -0.125
107 | RRIRERPPRLPRPRPRPLWTPRP | 0.0667
108 | RRIRERPPRLPRPRPRPLYAPRP | -0.101
109 | RRIRERPPRLPRPRPRPLYEPRP | -1.24
110 | RRIRERPPRLPRPRPRPLYQPRP | -0.176
111 | RRIRERPPRLPRPRPRPLYVPRP | -0.939
112 | RRIRERPPRLPRPRPRPLYWPRP | -0.383
113 | RRIRERPPRLPRPRPRPMAYPRP | -0.0427
114 | RRIRERPPRLPRPRPRPMCIPRP | -0.133
115 | RRIRERPPRLPRPRPRPMCLPRP | -0.38
116 | RRIRERPPRLPRPRPRPMDFPRP | -0.0298
117 | RRIRERPPRLPRPRPRPMDHPRP | -0.0102
118 | RRIRERPPRLPRPRPRPMDSPRP | -0.0933
119 | RRIRERPPRLPRPRPRPMEAPRP | -0.261
120 | RRIRERPPRLPRPRPRPMEDPRP | -0.0739
121 | RRIRERPPRLPRPRPRPMEMPRP | 0.0606
122 | RRIRERPPRLPRPRPRPMGAPRP | 0.0638
123 | RRIRERPPRLPRPRPRPMGKPRP | -0.01
124 | RRIRERPPRLPRPRPRPMHHPRP | -0.394
125 | RRIRERPPRLPRPRPRPMIQPRP | -0.176

Row | Sequence | shrunken log2 fold change
126 | RRIRERPPRLPRPRPRPMIVPRP | -0.477
127 | RRIRERPPRLPRPRPRPMIYPRP | -0.12
128 | RRIRERPPRLPRPRPRPMKPPRP | -0.0018
129 | RRIRERPPRLPRPRPRPMLIPRP | -0.266
130 | RRIRERPPRLPRPRPRPMMPPRP | 0.0391
131 | RRIRERPPRLPRPRPRPMNMPRP | -0.176
132 | RRIRERPPRLPRPRPRPMNSPRP | -0.0427
133 | RRIRERPPRLPRPRPRPMRWPRP | 0.472
134 | RRIRERPPRLPRPRPRPMVGPRP | 0.17
135 | RRIRERPPRLPRPRPRPMVWPRP | -0.0633
136 | RRIRERPPRLPRPRPRPMYQPRP | -0.0801
137 | RRIRERPPRLPRPRPRPNAAPRP | 0.163
138 | RRIRERPPRLPRPRPRPNAKPRP | -0.134
139 | RRIRERPPRLPRPRPRPNESPRP | 0.0842
140 | RRIRERPPRLPRPRPRPNGMPRP | -0.0154
141 | RRIRERPPRLPRPRPRPNHDPRP | -0.551
142 | RRIRERPPRLPRPRPRPNHHPRP | -0.845
143 | RRIRERPPRLPRPRPRPNKHPRP | -0.575
144 | RRIRERPPRLPRPRPRPNKKPRP | -0.187
145 | RRIRERPPRLPRPRPRPNKQPRP | -0.174
146 | RRIRERPPRLPRPRPRPNNGPRP | -0.0529
147 | RRIRERPPRLPRPRPRPNPQPRP | 0.0138
148 | RRIRERPPRLPRPRPRPNQHPRP | -0.228
149 | RRIRERPPRLPRPRPRPNQWPRP | 0.062
150 | RRIRERPPRLPRPRPRPNRAPRP | 0.0169
